Patent US20190365920A1 (INSERM INSTITUT NATIONAL DE LA SANT ET DE LA RECHERCHE …, published 2019)

Target: T1, SLITRK6 (SLIT and NTRK-like family, member 6) (human, UniProt Q9H5Y7 27-841)
T1 construct: whole, on cells; Endogenous SLITRK6 at the membrane of A375 BRAF-mutant melanoma cells after treatment with PLX4032, alone or with AZD6244; also called DFNMYP
T1 sequence (looked up): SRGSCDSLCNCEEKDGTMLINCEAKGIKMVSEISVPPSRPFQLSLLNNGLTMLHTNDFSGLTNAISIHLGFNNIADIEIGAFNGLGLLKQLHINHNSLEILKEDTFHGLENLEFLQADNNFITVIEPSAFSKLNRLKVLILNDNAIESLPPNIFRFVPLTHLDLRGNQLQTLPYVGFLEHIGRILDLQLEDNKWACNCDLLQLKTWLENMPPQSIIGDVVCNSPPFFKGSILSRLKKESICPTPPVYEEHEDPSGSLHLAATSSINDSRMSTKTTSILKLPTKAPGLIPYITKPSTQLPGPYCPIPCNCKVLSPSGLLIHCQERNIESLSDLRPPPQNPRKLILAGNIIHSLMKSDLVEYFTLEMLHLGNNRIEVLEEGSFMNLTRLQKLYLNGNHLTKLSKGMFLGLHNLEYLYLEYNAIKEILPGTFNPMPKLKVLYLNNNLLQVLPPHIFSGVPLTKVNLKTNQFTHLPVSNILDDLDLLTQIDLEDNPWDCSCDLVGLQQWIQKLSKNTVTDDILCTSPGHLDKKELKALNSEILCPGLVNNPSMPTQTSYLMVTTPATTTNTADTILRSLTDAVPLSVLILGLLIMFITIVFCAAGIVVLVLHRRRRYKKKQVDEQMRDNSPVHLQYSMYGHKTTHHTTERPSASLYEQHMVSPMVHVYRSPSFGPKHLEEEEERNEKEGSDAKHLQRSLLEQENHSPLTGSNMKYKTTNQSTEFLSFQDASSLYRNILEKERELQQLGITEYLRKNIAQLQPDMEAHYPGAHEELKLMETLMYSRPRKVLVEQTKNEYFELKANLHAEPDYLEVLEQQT
Assay: immunofluorescence staining of A375 cells (si-Ctl or si-SLITRK6) treated with PLX4032 alone or with AZD6244

- binding result: binds
B1: Hal5-10acl2 antibody directed against SLITRK6 (antibody, V domains shown)
VH: QVQLVESGGGVVQPGRSLRLSCAASGFTFSSYGMHWVRQAPGKGLEWVAVIWYDGSNQYYADSVKGRFTISRDNSKNTLFLQMHSLRAEDTAVYYCARGLTSGRYGMDVWGQGTTVTVSS
VL: DIVMTQSPLSLPVTPGEPASISCRSSQSLLLSHGFNYLDWYLQKPGQSPQLLIYLGSSRASGVPDRFSGSGSGTDFTLKISRVEAEDVGLYYCMQPLQIPWTFGQGTKVEIKR
notes: It is produced by a CHO cell deposited as ATCC PTA-13102; also called HA15-10acl2; the antibody against SLITRK6
